Data reported in patent US20240409617A1 (published 2024).
Changes are numbered by the printed parent chain. Where two headings read alike, the source gives them in different places.

B1: Ab 30 (Fc fusion)
VH: QVQLVQSGGGVVQPGKSLRLSCTASGFTFSDFPIHWVRQAPGKGLEWVGVISYDGNIKYYGDSVKGRFTISRDNAKNSLYLQMNSLRVEDTAVYYCARGGSSFDIWGQGTTVTVSS
VL: SYELTQPPSVSEAPRQRVTISCSGSTSNIGNNAVSWYQHLPGKAPKLLIYYNERLPSGVSDRFSGSKSGTSASLAISGLRSEDEADYYCAAWDDSLSGHVVFGGGTKLTVL
B2: Ab 23 (Fc fusion)
VH: EVQLVQSGAEVKKPGSSVKVSCRSSGGTFSTYGITWVRQAPGQGLEWMGRIIPSLGIPNYAQKFQGRVTITADTSVSTAWMELSSLESDDTAIYYCARENIDLATNDFWGQGTLVTVSS
VL: QSALTQPPSASGSPGQSVTISCTGTSRDIGAYGYVSWYQQVPGKAPKLIIYEVRNRPSGVSSRFSGSKSGNTASLTISGLQAEDEADYYCSSYTSSSTLDVVFGGGTKLTVL
B3: Ab 27 (Fc fusion)
VH: QVQLVQSGTEVKKPGASVKVSCKASGYSFTGSHLHWVRQAPGQGLEWMGWINPDSGVINYAQKFQGRVTLTRDTSISTAYMELSGLRSDDTAVYYCARDKAIGYVWALDYWGQGTLVTVSS
VL: QSALTQPPSVSGSPGQSVTISCTGTSSDVGTYNRVSWYQQPPGKAPKLMIYEVSNRPSGVSNRFSGSKSGNTASLTISGLQAEDEADYYCSSYTRTFTYVFGTGTKVTVL
B4: Ab 25 (Fc fusion)
VH: QVQLVQSGGGLVQPGGSLRLSCAASGFTFSSYWMSWVRQAPGKGLEWVANIKQDGSEKYYVDSVKGRFTISRDNAKNSLYLQMNSLRAEDTAVYYCARGFYYYGAFDIWGQGTTVTVSS
VL: NFMLTQPHSVSESPGKTVTISCTGSSGSIASNYVQWYQQRPGSAPTTVIYEDNQRPSGVPDRFSGSIGSSSNSASLTISGLKTEDEADYYCQSYDSSNHWVFGGGTKLTVL
B5: Ab set2-7 (Fc fusion)
chain 1: QVTLKESGPTRVKPTQTLTLTCTFSGFSLSTTGVGVGWIRQPPGKALEWLALIYWNDDKRYSPSLKSRLTITKDTSKNQVVLTMTNMDPVDTATYYCARISGSGYFYPFDIWGQGTTVTVSS
chain 2: B4 VL with G24R, A44S, G68D, T83A, N98S, H99L
B6: Ab 2-7 (Fc fusion)
chain 1: B5 chain 1
chain 2: B4 VL with G24R, A44S, G68D, T83A, N98S, H99L
B7: Ab 15 (Fc fusion)
VH: QVQLVQSGGGLVKPGRSLRLSCTASGFTFGDYAMSWFRQAPGKGLEWVGFIRSKAYGGTTGYAASVKGRFTISRDDSKSIAYLQMNSLKTEDTAVYYCTTADDDMDVWGKGTTVTVSS
VL: NFMLTQPHSVSESPGKTVTISCTRSSGTIASNYVQWYQQRPGSAPTTVIYEDNQRPSGVPDRFSGSIDRSSNSASLTISGLTPDDEADYYCQSYDTSNHYVFGTGTKVTVL
B8: Ab 5 (Fc fusion)
VH: QVQLVQSGGGVVQPGRSLRLSCAASGFTFTTYGMHWVRQAPGKGLEWVAVISYDGSIKNYADFVEGRFTISRDNSKNTLYLQMNSLRPEDTGVYYCARVGDSSSYYGIDAWGQGTLVTVSS
VL: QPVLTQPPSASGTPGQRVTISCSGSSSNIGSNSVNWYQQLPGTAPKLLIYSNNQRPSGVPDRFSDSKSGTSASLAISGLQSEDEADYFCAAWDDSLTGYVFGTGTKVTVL

Experiments:
Assay in all cases: BLI
S1 [1] = target: S1
S1-biotin(ACRO) = target: S1-biotin(ACRO)
S1 [2] = target: S1; remark: listed apart in the source
S1 [3] = target: S1; remark: listed apart in the source
S1 [4] = target: S1; remark: listed apart in the source

Row | Binder | Kd (S1 [1]) | Kd (S1-biotin(ACRO)) | Kd (S1 [2]) | Kd (S1 [3]) | Kd (S1 [4])
1 | B1 | 0.314 nM |  |  |  | 
2 | B2 | 0.338 nM | 0.338 nM |  |  | 
3 | B3 | < 0.001 nM | < 0.001 nM |  |  | 
4 | B4 | 10.1 nM | 10.1 nM |  |  | 
5 | B5 |  |  | < 0.001 nM | < 0.001 nM | 
6 | B6 | < 0.001 nM |  |  |  | < 0.001 nM
7 | B7 | 0.033 nM | 0.033 nM |  |  | 
8 | B8 | < 0.001 nM |  |  |  | 
